Test results: IntAct's records for PubMed 29880681

B1: LIM domain and actin-binding protein 1 (Mus musculus), Q9ERG0-1 (parent)
chain: MESTPFNRRQWTSLSLRVTAKELSLVNKNKSSAIVEIFSKYQKAAEEANMERKKNNPESLPQHFRRGTLSVLKKKWENPVAGAEFHTDSLPNSSSEGGHTADYPPAEVTDKPAPGVRADREEHTQPKPRFGSRPEAVIQSRYPRSENSHDFKAQATESQKMENCLGDSRHEAEKPETSENTETSGKIEKYNVPLNRLKMMFEKGEHNQTKSLWTQSRNAGGRRLSENNCSLDDWEIGAGHLSSSAFNSEKNESKRNLELPRLSETSIKDRMAKYQAAVSKQSSPASYTNELKTSESKTHKWEQKENVPPGPEACSVHQEGSKVSTTENSLVALSVPAEDDTCNSQVKSEAQQPMHPKPLSPDARTSSLPESSPSKTAKKFQAPAKESCVECQKTVYPMERLLANQQVFHISCFRCSYCNNKLSLGTYASLHGRIYCKPHFNQLFKSKGNYDEGFGHKQHKDLWASKSDNEETLGRPAQPPNAGESPHSPGVEDAPIAKVGVLAASMEAKASSQREREDKPAETKKLRIAWPPPAELGGSGSALEEGIKVSKPKWPPEDDVCKTEAPEDVDLDLKKLRRSSSLKERSRPFTVAASFRTSSIKSPKASSPSLRKGWSESEQSEEFGGGIATMERKQTENARPSGEKENVGKSRWQGEEVPRSKDRSSFELESENFMENGANIAEDDNHVHAQQSPLEPEAPGWSGFVDTTAAKEFTTQNQKSQDVGFWEGEVVRELSVEEQIKRNRYYDEDEDEE
partner: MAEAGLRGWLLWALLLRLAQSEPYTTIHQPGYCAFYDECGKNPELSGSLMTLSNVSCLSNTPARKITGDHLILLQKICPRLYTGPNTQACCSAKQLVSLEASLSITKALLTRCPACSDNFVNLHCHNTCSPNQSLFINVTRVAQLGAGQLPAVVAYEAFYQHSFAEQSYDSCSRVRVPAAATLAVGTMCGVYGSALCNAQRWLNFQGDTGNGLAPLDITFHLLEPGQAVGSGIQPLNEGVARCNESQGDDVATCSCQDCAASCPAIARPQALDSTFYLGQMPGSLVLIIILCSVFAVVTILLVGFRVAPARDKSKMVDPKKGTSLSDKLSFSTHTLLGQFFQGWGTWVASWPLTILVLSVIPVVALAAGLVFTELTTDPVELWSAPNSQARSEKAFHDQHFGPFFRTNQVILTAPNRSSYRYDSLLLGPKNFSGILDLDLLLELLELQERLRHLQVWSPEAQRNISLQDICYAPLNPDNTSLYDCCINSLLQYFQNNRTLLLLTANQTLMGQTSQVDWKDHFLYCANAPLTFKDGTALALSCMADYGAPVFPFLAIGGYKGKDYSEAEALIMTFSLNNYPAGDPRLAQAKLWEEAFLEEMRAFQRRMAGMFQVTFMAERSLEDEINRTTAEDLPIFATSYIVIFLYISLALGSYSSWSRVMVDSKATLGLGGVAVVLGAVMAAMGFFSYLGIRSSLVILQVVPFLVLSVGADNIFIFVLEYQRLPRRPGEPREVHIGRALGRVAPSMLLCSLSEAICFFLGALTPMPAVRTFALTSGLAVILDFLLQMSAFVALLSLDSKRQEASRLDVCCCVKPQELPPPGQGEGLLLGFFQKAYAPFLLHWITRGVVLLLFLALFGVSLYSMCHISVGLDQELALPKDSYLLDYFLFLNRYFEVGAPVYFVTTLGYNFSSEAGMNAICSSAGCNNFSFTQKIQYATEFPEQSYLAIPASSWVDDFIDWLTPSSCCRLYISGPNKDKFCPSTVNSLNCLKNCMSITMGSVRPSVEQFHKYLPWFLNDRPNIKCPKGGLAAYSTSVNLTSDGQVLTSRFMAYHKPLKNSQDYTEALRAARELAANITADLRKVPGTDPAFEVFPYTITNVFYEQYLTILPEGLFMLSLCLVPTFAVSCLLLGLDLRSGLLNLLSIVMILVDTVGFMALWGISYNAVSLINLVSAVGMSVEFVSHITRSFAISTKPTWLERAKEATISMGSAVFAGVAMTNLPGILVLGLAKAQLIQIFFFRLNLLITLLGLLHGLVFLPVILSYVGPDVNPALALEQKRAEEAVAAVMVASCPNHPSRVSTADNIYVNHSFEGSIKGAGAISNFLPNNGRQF
B2: NPC1-like intracellular cholesterol transporter 1 (Homo sapiens), Q9UHC9-2 (parent)
chain: B1 partner

Variants of: B1
Details: with NPC1L1, Q9UHC9-2

Row | Variant | effect of a mutation on the interaction
1 | C164A;L165A;G166A | disrupting interaction

Variants of: B1
Details: with NPC1L1, Q9UHC9-2
Remark: another data set of the same source

Row | Variant | effect of a mutation on the interaction
2 | C164A;L165A;G166A | disrupting interaction strength

Variants of: B2
Details: with Lima1, Q9ERG0-1

Row | Variant | effect of a mutation on the interaction
3 | Q1277A;K1278A;R1279A | disrupting interaction
